Assay results: patent US20200149062

Sequence of ERK2 (P28482 2-360): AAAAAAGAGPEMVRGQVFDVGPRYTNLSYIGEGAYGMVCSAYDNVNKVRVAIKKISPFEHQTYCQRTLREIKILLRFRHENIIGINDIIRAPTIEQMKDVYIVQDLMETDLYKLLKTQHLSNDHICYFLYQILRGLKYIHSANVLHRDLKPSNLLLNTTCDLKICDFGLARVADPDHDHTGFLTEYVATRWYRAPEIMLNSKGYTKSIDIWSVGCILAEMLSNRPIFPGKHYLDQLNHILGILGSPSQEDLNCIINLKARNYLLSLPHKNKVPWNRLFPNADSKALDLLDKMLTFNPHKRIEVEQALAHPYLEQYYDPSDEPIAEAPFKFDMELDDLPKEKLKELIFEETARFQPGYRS

Substance: ERK2
- TSC2 radiolabeling with [gamma-33P]-ATP (in vitro kinase assay on FLAG-immune-precipitate) (WT-TSC2-FLAG): ERK2-TSC2 phosphorylation served as a positive control

Substance: modified PKG (M438G)
- thiophosphate ester labeling of TSC2 (TSC2-FLAG SA (S1365A)): both radioactive or thiophosphate ester labeling of TSC2 was also seen when SA TSC2 was used

Substance: recombinant PKG (purified active PKG)
- radioactive labeling of TSC2 ([gamma-33P]-ATP, autoradiography) (TSC2-FLAG SA (S1365A)): both radioactive or thiophosphate ester labeling of TSC2 was also seen when SA TSC2 was used
